One block for each binder: values may come before it.
Legend:
GST-tagged COUP-TFII = biological target: T1, GST-tagged COUP-TFII (mouse, UniProt P43135 1-414); assay: native gel or EMSA; NKX2-3 and COUP-TFII-GST co-incubated with labelled St6gal1 NCCE probe; complex seen on DNA; conditions: both partners purified
T1 construct: COUP transcription factor 2 (COUP-TFII, Nr2f2); Nr2f2 cDNA cloned into pGEX2TK; also called COUP-TFII-GST; source: E. coli BL21, purified
T1 sequence (looked up): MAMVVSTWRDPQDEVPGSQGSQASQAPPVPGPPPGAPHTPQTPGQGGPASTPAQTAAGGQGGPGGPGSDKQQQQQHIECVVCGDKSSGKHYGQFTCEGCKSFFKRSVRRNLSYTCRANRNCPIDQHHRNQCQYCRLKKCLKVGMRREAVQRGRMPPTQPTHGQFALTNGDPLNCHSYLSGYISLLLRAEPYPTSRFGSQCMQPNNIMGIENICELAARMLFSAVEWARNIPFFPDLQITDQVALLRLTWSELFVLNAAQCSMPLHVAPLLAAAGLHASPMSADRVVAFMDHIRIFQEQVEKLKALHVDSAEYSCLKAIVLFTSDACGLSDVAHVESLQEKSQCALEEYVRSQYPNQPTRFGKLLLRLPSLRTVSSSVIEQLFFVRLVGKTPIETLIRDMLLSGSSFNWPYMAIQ

[1] = biological target: T2, COUP-TFII (recombinant, His- and T7-tagged) (mouse, UniProt P43135 1-414); assay: native gel or EMSA; recombinant proteins co-incubated with labelled Madcam1 CE probes (native CE, CE_ΔC_A, CE_ΔN_ΔC_A); 4 °C, 20% glycerol, 20 mM Tris pH 8.0, 10 mM KCl, 1 mM DTT, poly dI/C, BSA; 6% gel; supershift with anti-NKX2-3; complex seen on DNA; conditions: both partners purified
T2 construct: COUP transcription factor 2 (COUP-TFII, Nr2f2), mouse; cDNA PCR-amplified from mouse cDNA as BamHI-EcoRI fragment and cloned into pET21-A; also called Nr2f2; NR2F2; source: E. coli BL21, purified
T2 sequence (looked up): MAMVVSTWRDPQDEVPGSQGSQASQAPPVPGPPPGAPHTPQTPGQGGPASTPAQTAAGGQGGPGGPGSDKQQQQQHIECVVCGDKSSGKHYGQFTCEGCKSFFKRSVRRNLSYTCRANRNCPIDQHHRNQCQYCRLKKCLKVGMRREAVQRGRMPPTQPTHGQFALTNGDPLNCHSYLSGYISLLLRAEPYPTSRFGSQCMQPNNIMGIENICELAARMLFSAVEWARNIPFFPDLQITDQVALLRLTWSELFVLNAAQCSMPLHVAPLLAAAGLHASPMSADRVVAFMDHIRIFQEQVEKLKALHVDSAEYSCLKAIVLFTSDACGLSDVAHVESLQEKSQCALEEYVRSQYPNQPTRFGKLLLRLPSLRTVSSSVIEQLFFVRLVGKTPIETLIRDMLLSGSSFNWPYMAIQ

NKX2-5;COUP-TFII = NKX2-5;COUP-TFII (mouse;mouse, UniProt P42582;P43135 1-318;1-414, |); assay: EMSA; COUP-TFII tag not stated; EMSA: 20 mM Tris pH 8.0, 10 mM KCl, 1 mM DTT, 20% glycerol, 12.5 ng poly dI/C, 6.25 pmol random ss oligo, BSA, 1-2 pmol probe, 4 C; conditions: protein: recombinant;recombinant, tags: His, T7 (pET21A);His, copies: 1;1, blunt
Sequence of NKX2-5;COUP-TFII (P42582 whole entry, one chain of several): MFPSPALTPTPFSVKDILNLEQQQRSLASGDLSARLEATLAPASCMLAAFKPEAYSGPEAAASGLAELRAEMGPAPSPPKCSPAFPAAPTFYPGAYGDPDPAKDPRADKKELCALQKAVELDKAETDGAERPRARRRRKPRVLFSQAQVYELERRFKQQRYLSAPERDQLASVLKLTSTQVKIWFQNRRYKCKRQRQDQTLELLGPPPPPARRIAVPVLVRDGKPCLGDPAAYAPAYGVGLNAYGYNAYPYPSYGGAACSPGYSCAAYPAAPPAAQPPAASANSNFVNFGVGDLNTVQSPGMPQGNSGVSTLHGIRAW

NKX2-3;COUP-TFII [2] = biological target: T3, NKX2-3;COUP-TFII (mouse;mouse, UniProt P97334;P43135 1-362;1-414, |); assay: EMSA; supershift with anti-NKX2-3; EMSA: 20 mM Tris pH 8.0, 10 mM KCl, 1 mM DTT, 20% glycerol, 12.5 ng poly dI/C, 6.25 pmol random ss oligo, BSA, 1-2 pmol probe, 4 C; conditions: protein: recombinant;recombinant, tags: His, T7 (pET21A);His, copies: 1;1, blunt
NKX2-3 [3] = biological target: T4, NKX2-3 (mouse, UniProt P97334 1-362); assay: EMSA; EMSA: 20 mM Tris pH 8.0, 10 mM KCl, 1 mM DTT, 20% glycerol, 12.5 ng poly dI/C, 6.25 pmol random ss oligo, BSA, 1-2 pmol probe, 4 C; conditions: protein: recombinant; tags: His, T7 (pET21A); blunt
COUP-TFII [4] = biological target: T5, COUP-TFII (mouse, UniProt P43135 1-414); assay: as above; conditions: protein: recombinant; tags: His, T7 (pET21A); chain copies: 2; blunt
T5 sequence: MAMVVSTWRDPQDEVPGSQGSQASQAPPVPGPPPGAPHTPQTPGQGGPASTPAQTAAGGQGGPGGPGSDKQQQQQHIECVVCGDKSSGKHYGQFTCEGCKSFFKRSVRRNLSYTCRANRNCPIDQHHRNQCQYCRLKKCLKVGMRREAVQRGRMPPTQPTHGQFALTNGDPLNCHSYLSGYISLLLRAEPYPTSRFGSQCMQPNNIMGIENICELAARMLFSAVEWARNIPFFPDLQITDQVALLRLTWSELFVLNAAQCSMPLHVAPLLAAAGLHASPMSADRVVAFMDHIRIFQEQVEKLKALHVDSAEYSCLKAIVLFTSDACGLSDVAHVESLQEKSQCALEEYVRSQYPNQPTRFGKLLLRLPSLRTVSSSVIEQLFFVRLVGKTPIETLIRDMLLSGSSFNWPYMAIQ

NKX2-3;COUP-TFII [5] = biological target: T3, NKX2-3;COUP-TFII; assay: EMSA; band stronger than on WT CE; supershift with anti-NKX2-3; EMSA: 20 mM Tris pH 8.0, 10 mM KCl, 1 mM DTT, 20% glycerol, 12.5 ng poly dI/C, 6.25 pmol random ss oligo, BSA, 1-2 pmol probe, 4 C; conditions: protein: recombinant;recombinant, tags: His, T7 (pET21A);His, copies: 1;1, blunt
NKX2-3;COUP-TFII-GST = NKX2-3;COUP-TFII-GST (mouse;mouse, UniProt P97334;P43135 1-362;1-414, |); assay: EMSA; EMSA: 20 mM Tris pH 8.0, 10 mM KCl, 1 mM DTT, 20% glycerol, 12.5 ng poly dI/C, 6.25 pmol random ss oligo, BSA, 1-2 pmol probe, 4 C; conditions: protein: recombinant;recombinant; tags: His, T7 (pET21A);GST (pGEX2TK); copies: 1;1; label: labeled; blunt
COUP-TFII-GST = biological target: T6, COUP-TFII-GST (mouse, UniProt P43135 1-414); assay: EMSA; inhibited by cold WT probe; EMSA: 20 mM Tris pH 8.0, 10 mM KCl, 1 mM DTT, 20% glycerol, 12.5 ng poly dI/C, 6.25 pmol random ss oligo, BSA, 1-2 pmol probe, 4 C; conditions: protein: recombinant; tags: GST (pGEX2TK); chain copies: 2; label: labeled; blunt
T6 sequence: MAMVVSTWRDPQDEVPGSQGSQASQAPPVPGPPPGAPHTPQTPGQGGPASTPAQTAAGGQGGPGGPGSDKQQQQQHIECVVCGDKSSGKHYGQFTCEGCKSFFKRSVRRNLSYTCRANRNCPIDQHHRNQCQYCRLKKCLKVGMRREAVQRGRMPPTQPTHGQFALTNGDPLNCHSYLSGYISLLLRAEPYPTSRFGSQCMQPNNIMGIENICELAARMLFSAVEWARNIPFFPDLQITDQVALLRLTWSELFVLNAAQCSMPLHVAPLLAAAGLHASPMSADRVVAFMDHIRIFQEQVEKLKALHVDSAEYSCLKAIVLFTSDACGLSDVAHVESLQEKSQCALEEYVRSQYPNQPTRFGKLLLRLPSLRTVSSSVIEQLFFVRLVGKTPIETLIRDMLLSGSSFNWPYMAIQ

NKX2-3 [6] = biological target: T4, NKX2-3; assay: as above; conditions: protein: recombinant; tags: His, T7 (pET21A); label: labeled; blunt
HEY1 [7] = biological target: T7, HEY1 (mouse, UniProt Q9WV93 1-299); assay: EMSA; supershift with anti-HEY1 (HRT1); EMSA: 20 mM Tris pH 8.0, 10 mM KCl, 1 mM DTT, 20% glycerol, 12.5 ng poly dI/C, 6.25 pmol random ss oligo, BSA, 1-2 pmol probe, 4 C; conditions: protein: recombinant; tags: His, T7 (pET21A); chain copies: 2; blunt
T7 sequence: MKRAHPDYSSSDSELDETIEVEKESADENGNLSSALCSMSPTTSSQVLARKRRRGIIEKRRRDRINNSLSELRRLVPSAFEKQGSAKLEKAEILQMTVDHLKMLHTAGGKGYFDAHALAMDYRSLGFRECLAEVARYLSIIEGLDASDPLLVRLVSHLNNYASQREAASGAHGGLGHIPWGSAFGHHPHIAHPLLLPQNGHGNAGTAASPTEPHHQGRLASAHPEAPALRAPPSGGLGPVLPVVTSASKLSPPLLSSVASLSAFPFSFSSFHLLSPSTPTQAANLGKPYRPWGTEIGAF

NKX2-3;COUP-TFII [8] = biological target: T3, NKX2-3;COUP-TFII; assay: EMSA; EMSA: 20 mM Tris pH 8.0, 10 mM KCl, 1 mM DTT, 20% glycerol, 12.5 ng poly dI/C, 6.25 pmol random ss oligo, BSA, 1-2 pmol probe, 4 C; conditions: protein: recombinant;recombinant; tags: His, T7 (pET21A);His, T7 (pET21A); copies: 1;1; blunt
COUP-TFII [9] = biological target: T5, COUP-TFII; assay: EMSA; supershift; EMSA: 20 mM Tris pH 8.0, 10 mM KCl, 1 mM DTT, 20% glycerol, 12.5 ng poly dI/C, 6.25 pmol random ss oligo, BSA, 1-2 pmol probe, 4 C; conditions: protein: recombinant; tags: His, T7 (pET21A); chain copies: 2; blunt
NKX2-3 [10] = biological target: T4, NKX2-3; assay: EMSA; supershift; HEY1 dose-dependently inhibits (Fig S1B); EMSA: 20 mM Tris pH 8.0, 10 mM KCl, 1 mM DTT, 20% glycerol, 12.5 ng poly dI/C, 6.25 pmol random ss oligo, BSA, 1-2 pmol probe, 4 C; conditions: protein: recombinant; tags: His, T7 (pET21A); blunt
HEY1 [11] = biological target: T7, HEY1; assay: EMSA; EMSA: 20 mM Tris pH 8.0, 10 mM KCl, 1 mM DTT, 20% glycerol, 12.5 ng poly dI/C, 6.25 pmol random ss oligo, BSA, 1-2 pmol probe, 4 C; conditions: protein: recombinant; tags: His, T7 (pET21A); chain copies: 2; blunt

- binding result (GST-tagged COUP-TFII): binds
- binding result [1]: binds
B1: NKX2-3 (recombinant, His- and T7-tagged) (natural protein, mouse, UniProt P97334 1-362, looked up)
chain: MMLPSPVTSTPFSVKDILNLEQQRHFHGAHLQAELEQHFHSAPCMLATAEGTQFSDAGEEDEEEEGEKLSYLNSLAAAEGHGDSGLCPQSYVHTVLRDACSGPKEQEEEVVSERSQKSCQLKKSLEAAGDCKTSEDGERPKPRSRRKPRVLFSQAQVFELERRFKQQRYLSAPEREHLASSLKLTSTQVKIWFQNRRYKCKRQRQDKSLELGTHAPPPPPRRVAVPVLVRDGKPCVTPSAQTYGSPYGVGAGAYSYNSFPAYGYGNSAAAAAAAAAAAAAAAAYSGSYGCAYPTGGGGGGGGTASAATTAMQPACSATGGGSFVNVSNLGGFGSGGGAQPLHQGAAAGSACTQGTLQGIRAW
notes: Homeobox protein NKX2-3, mouse; cDNA PCR-amplified from mouse cDNA as EcoRI-HindIII fragment and cloned into pET21-A; also called intestinal homeodomain protein NKX2-3; source: E. coli BL21, purified

B2: Tbx5 NCCE (dsDNA)
DNA 1: CCGCTGACCCGACCCTTAATAAGGCA
DNA 2: TGCCTTATTAAGGGTCGGGTCAGCGG
- binding result (NKX2-5;COUP-TFII): binds

B3: Madcam1 CE_deltaN_deltaC_A (dsDNA)
DNA 1: CCATGGTCTTGAAAAAAAATGGTGACCCACCTCC
DNA 2: GGAGGTGGGTCACCATTTTTTTTCAAGACCATGG
- binding result (NKX2-3;COUP-TFII [2]): binds
- binding result (NKX2-3 [3]): no binding
- binding result (COUP-TFII [4]): binds

B4: Madcam1 CE_deltaC_A (dsDNA)
DNA 1: CCATGCACTTGAAAAAAAATGGTGACCCACCTCC
DNA 2: GGAGGTGGGTCACCATTTTTTTTCAAGTGCATGG
- binding result (NKX2-3;COUP-TFII [5]): binds

B5: St6gal1 CE WT (dsDNA)
DNA 1: GAGGCTGGTCAGAGAAGTGTGAAAAG
DNA 2: CTTTTCACACTTCTCTGACCAGCCTC
- binding result (NKX2-3;COUP-TFII-GST): binds
- binding result (COUP-TFII-GST): binds
- binding result (NKX2-3 [6]): binds

B6: Etv2 NCCE (dsDNA)
DNA 1: CCTGCAACTTGACCCAGGCTGCGACCCCCAGC
DNA 2: GCTGGGGGTCGCAGCCTGGGTCAAGTTGCAGG
- binding result (NKX2-5;COUP-TFII): binds

B7: Madcam1 CE WT (dsDNA)
DNA 1: CCATGCACTTGACCCACCATGGTGACCCACCTCC
DNA 2: GGAGGTGGGTCACCATGGTGGGTCAAGTGCATGG
- binding result (HEY1 [7]): binds
- binding result (NKX2-3;COUP-TFII [8]): binds
- binding result (COUP-TFII [9]): binds
- binding result (NKX2-3 [10]): binds

B8: Madcam1 CE_deltaE/N (m1) (dsDNA)
DNA 1: CCATGGTCTTGACCCACCATGGTGACCCACCTCC
DNA 2: GGAGGTGGGTCACCATGGTGGGTCAAGACCATGG
- binding result (HEY1 [11]): no binding
- binding result (NKX2-3 [3]): no binding

From article PMC9718832, “An NKX-COUP-TFII morphogenetic code directs mucosal endothelial addressin expression” (Nature Communications, 2022)
